Target: DsbC-MPK4 fusion (construct pT7-DsbC-MPK4) (E. coli | Leishmania major) (UniProt P0AEG6)
Assay: SEC; analytical size exclusion chromatography of the IMAC purified fraction of the uncleaved DsbC-MPK4 fusion; peak at 8.4 ml; apparent molecular weight

DsbC-MPK4 fusion (construct pT7-DsbC-MPK4) (from UniProt P0AEG6 21-236; Q4QD66 1-363)
stoichiometry N: 10
